Experimental data: article PMC3040262 (Biochemistry, 2011)

Target: PP1α_(7-330), His6-tag removed by TEV protease (UniProt P62136 7-330)
Experiment: SEC

Chain of PP1α_(7-330), His6-tag removed by TEV protease (P62136 7-330): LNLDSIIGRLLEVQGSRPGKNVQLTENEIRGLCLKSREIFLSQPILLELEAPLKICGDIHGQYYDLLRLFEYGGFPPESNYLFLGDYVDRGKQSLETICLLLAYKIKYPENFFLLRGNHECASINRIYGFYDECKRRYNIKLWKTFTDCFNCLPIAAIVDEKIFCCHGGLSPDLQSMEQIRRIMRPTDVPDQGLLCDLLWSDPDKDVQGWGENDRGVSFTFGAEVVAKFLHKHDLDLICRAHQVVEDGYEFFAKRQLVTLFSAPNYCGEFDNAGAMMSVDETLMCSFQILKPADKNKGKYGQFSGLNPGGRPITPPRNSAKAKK

B1: spinophilin_(417-583) (domain or fragment)
chain: not shown
  stoichiometry N: 1
